No end group written: not given here.
Legend:
[1] = biological target: T1, c-MAF (Q1): fragment of c-MAF including Aa 19-208 (Homo sapiens (Human), UniProt O75444 19-208); assay: SPR, Biacore T200, 25 C; antibody captured on Protein A, c-MAF (Q1) as analyte at 6.5 nM; single concentration fit, 1:1 model
T1 construct: Recombinant antigen preparation used in SPR; also called c-MAF fragment
T1 sequence: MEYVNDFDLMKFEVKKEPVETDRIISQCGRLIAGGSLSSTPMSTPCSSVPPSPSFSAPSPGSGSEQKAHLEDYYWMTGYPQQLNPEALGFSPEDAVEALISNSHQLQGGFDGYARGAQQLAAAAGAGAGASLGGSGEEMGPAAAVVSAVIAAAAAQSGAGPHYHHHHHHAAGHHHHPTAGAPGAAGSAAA
Method: Test measurements were conducted to confirm protein A-binding of the antibody INB-1-11-8 and to select appropriate capture levels for the kinetic measurements of the analyte. A capture level of 240 RU was chosen for the measurement with c-MAF (Q1), resulting in an expected Rmax of ca 64 RU for two 19.6 kDa antigens binding per antibody molecule. To generate sufficiently high binding signals for the peptide, a higher capture level of […] was chosen, also resulting in an expected Rmax of ca 30 RU. Serial dilutions of the antigen were injected for 180 s, followed by a 600 s buffer injection for off-rate determination (see FIG. 6). For the c-MAF fragment the molar concentrations used for the serial dilutions were calculated based on the concentrations determined by CFCA. The kinetic measurements were performed twice to confirm the binding behavior.
Based on this preliminary data, an affinity in the nM-range has been roughly estimated for the interaction. The binding is characterized by a very fast association rate and a fast dissociation rate, i.e. the binding is not very tight.

[2] = biological target: T2, Peptide 1 (epitope 83-EQKAHLEDYYWMTGYPQQ-100 of c-MAF of human origin) conjugated to BSA (human, also: conjugated to BSA); assay: antigen-specific ELISA: epitope peptide conjugated to BSA on the plate, anti-rabbit secondary antibody conjugated to alkaline phosphatase
T2 construct: also called antigen
T2 peptide: EQKAHLEDYYWMTGYPQQ
Method: An Antigen-specific ELISA was used to test the antibody sensitivity for the antigen. To this end, the epitope, Peptide 1, described above, was conjugated to BSA. This was attached to a the plate surface where the ELISA is performed and washed. The INB-1-11-8 c-MAF specific antibody was then applied so that it could bind to the antigen. Following, the incubation time and wash with TBST, a secondary antibody specific for rabbit antibodies and conjugated to Alkaline Phosphatase was used to score binding of the primary antibody to the antigen. Several dilutions were used to test the titer of the antibody, which is an indication of the affinity of the antibody for its antigen (FIG. 3A).

Kd [1]: 1.1 nM | koff [1]: 0.0056 s⁻¹ | kon [1]: 5.3e+06 M⁻¹ s⁻¹ | binding result [2]: binds
B1: INB-1-11-8 c-MAF specific monoclonal antibody (rabbit) (antibody, V domains shown)
VH: QSLEESGGRLVTPGTPLTLTCTASGFSLNNYPMTWVRQAPGKGLDYIGVINNSGETAYATWAKRRFTISRTSTTLYLKIASPTIEDTATYFCARGGPVSSDMWGPGTLVIVSS
VL: AQVLTQTASPVSAVVGGTVTINCQSSQSVYRGDWLAWYQQRPGQPPKLLIYGASTLASGVPSRFKGSGSGTHFTLTISDLDCDDAATYYCAGGFSGHIYDFGGGTEVVVKG
notes: Rabbit monoclonal antibody; also called Clone ID11-8; antibody INB-1-11-8

— patent US20170369589A1 (INBIOMOTION S L, published 2017)
